Laboratory results from patent publication US20170240645A1 (Genentech, published 2017).

Legend:
[1] = target: T1, full-length human PMEL17 with an N-terminal gD tag (human, UniProt P40967 25-661); test: immunoblot of cell lysates
T1 construct: it is left out here; also called full-length PMEL17; N-terminal gD tagged PMEL17 (human)
T1 sequence: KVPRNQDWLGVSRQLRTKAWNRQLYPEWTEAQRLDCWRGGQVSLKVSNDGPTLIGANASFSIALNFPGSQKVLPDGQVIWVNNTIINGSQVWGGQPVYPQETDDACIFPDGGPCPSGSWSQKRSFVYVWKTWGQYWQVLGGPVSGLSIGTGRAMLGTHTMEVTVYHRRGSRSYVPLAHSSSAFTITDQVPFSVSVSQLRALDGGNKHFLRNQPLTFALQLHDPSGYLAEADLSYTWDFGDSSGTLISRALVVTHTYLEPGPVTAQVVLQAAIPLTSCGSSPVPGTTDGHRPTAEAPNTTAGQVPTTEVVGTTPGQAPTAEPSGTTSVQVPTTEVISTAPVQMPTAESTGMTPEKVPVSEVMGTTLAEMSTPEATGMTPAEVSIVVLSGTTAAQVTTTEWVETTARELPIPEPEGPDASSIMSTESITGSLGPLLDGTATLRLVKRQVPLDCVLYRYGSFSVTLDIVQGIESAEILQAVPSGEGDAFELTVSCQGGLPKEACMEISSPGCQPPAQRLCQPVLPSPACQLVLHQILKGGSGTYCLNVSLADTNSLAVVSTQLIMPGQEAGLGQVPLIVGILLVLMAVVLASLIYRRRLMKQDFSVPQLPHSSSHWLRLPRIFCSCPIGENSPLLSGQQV

human PMEL17 = target: T2, human PMEL17 (human, UniProt P40967 25-661); test: FACS on live cells, hybridoma supernatant
T2 construct: Untagged PMEL17 as it occurs on melanoma cell lines, normal human melanocytes, PC3 cells stably expressing PMEL17 cDNA, and in human tissue sections; also called Melanocyte protein PMEL17
T2 sequence: T1 sequence
Text: After 10-14 days, the supernatants were harvested and screened by ELISA and FACS. For FACS analysis, melanoma cell lines SK-MEL-23 (provided by Paul Robbins, Center for Cancer Research, Tumor Immunology Section), 1300mel (provided by Paul Robbins, Center for Cancer Research, Tumor Immunology Section), SKMELS (ATCC HTB-70), and UACC257 (National Cancer Institute), normal melanocytes (Invitrogen, Carlsbad, Calif.), and the prostate cancer cell line PC3 stably expressing human PMEL17 were contacted with antibody. One antibody from the PMEL17-immunized mice, designated 17A9, reacted strongly by fluorescent activated cell sorting (FACS) with live melanoma cells, normal human melanocytes and a PC3 cell line stably expressing PMEL17 cDNA, but not the parental PC3 cell line. Another antibody, 77E6, obtained from the DNA-immunized mice, was also positive by FACS, although 77E6 reacted with live cell lines expressing PMEL17 somewhat inconsistently and more weakly than 17A9.

[2] = target: T3, PMEL17 25-125 with an N-terminal gD tag and a C-terminal GPI anchor (human, UniProt P40967 25-125, C-terminal GPI anchor); test: FACS on transiently transfected 293 cells
T3 construct: C-terminal deletion, transiently expressed on 293 cells
T3 sequence: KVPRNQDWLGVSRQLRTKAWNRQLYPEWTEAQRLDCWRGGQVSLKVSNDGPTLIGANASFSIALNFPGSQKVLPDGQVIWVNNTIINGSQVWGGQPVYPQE
Text: (§1) In addition, C-terminal deletions with an N-terminal gD tag and a C-terminal GPI anchor were transiently transfected into 293 cells and analyzed for antibody binding by FACS. The C-terminal deletions tested included PMEL172₅₋₁₂₅, PMEL17₂₅₋₁₀₅, PMEL17₂₅₋₈₅, PMEL17₂₅₋₆₅, and PMEL17₂₅₋₄₅.

[3] = target: T4, PMEL17 25-105 with an N-terminal gD tag and a C-terminal GPI anchor (human, UniProt P40967 25-105, C-terminal GPI anchor); test: FACS on transiently transfected 293 cells
T4 construct: C-terminal deletion, transiently expressed on 293 cells
T4 sequence: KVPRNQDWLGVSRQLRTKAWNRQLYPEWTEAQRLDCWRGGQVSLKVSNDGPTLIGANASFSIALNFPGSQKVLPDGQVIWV
Text: as §1

[4] = target: T5, PMEL17 25-85 with an N-terminal gD tag and a C-terminal GPI anchor (human, UniProt P40967 25-85, C-terminal GPI anchor); test: FACS on transiently transfected 293 cells
T5 construct: C-terminal deletion, transiently expressed on 293 cells
T5 sequence: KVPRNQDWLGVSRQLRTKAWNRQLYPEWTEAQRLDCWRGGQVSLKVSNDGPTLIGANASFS
Text: as §1

[5] = target: T6, PMEL17 25-65 with an N-terminal gD tag and a C-terminal GPI anchor (human, UniProt P40967 25-65, not fully specified; C-terminal GPI anchor); test: FACS on transiently transfected 293 cells
T6 construct: C-terminal deletion, transiently expressed on 293 cells
T6 chain: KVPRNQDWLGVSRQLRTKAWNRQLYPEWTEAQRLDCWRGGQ
Text: as §1

binding result [1]: binds
binding result (human PMEL17): binds
binding result [2]: binds
binding result [3]: no binding
binding result [4]: no binding
binding result [5]: no binding
B1: 17A9 (antibody, V domains shown)
VH: EVQLQQSGPELVKPGASMKISCKSSGYSFTRYTMNWVKQSHGKNLEWIGVINPYNGGTVYNQKFKGKATLTVDKSSSTAYMELLSLTSEDSAVYYCARTDYDGYAMDYWGQGTSVTVSS
VL: DVQITQSPSYLAASPGETITINCRATKSISKYLAWYQEQPGKTNNLLIYSGSTLQSGIPSRFSGSGSGTDFTLTISSLEPEDFAMYYCQQHNEYPYTFGSGTKLEIK
notes: Mouse monoclonal antibody from a hybridoma (mice immunized with PMEL17 ECD-Fc); also called anti-PMEL17 antibody 17A9
